From the supplement of paper PMC10567573

B1: TRIM55 (parent)
chain: FQMEKIEHGYENMNHFTVNLNREE
B2: ANKRD40 (parent)
chain: VRIQNPSLRENDFIEIELDRQELT

Variants of: B1
Assay: protein stability index of a GFP-peptide fusion (GPS, HEK-293T) (PSI 1-6); higher = more stable
Details: c terminus: a fixed tail appended
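Note: lentivirally expressed fusions sorted by FACS into six bins by GFP to DsRed ratio, PSI derived from sequencing read proportions per bin multiplied by bin number.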

| Variant | protein stability index |
| --- | --- |
| FQMEKIEHGYENMAHFTVNLNREE | 3.17 |
| FQMEKIEHGYENMRHFTVNLNREE | 2.86 |
| FQMEKIEHGYENMLHFTVNLNREE | 2.29 |
| FQMEKIEHGYENMNHFTVNINREE | 2.64 |
| FQMEKIEHGYENMNHFTVNKNREE | 3.04 |
| FQMEKIEHGYENMNHFTVNENREE | 3.53 |
| FQMEKIEHGYENMNHFTVNCNREE | 2.33 |
| FQMEKIEHGYENMNHFTVNQNREE | 3.33 |
| FQMRKIEHGYENMNHFTVNLNREE | 2.19 |
| FQMWKIEHGYENMNHFTVNLNREE | 1.94 |
| FQMEKIEHGYENMNHFMVNLNREE | 2.77 |
| FQMEKIEHGYENMNHFLVNLNREE | 2.31 |
| FQMEKIEHGYENMNHFGVNLNREE | 2.86 |
| FQMEKIEHGYENMNHFTVNLNREH | 2.43 |
| FQMEKIEHGYENMNHFTVNLNREF | 1.77 |
| FQMEKIEHGYENMNHFTVNLNREW | 2.1 |
| FQMEKIEHGYENMNHFTVNLNREM | 1.57 |
| FQMEKIEHGYENMNHFTVNLNREL | 3.02 |
| FQMEKTEHGYENMNHFTVNLNREE | 2.87 |
| FQMEKKEHGYENMNHFTVNLNREE | 3.07 |
| FQMEKSEHGYENMNHFTVNLNREE | 3.18 |
| FQMEKNEHGYENMNHFTVNLNREE | 2.87 |

| Variant | protein stability index |
| --- | --- |
| FQMEKIECGYENMNHFTVNLNREE | 2.65 |
| FQMEKIEMGYENMNHFTVNLNREE | 2.51 |
| FQMEKIEWGYENMNHFTVNLNREE | 2 |
| FQMEKIEFGYENMNHFTVNLNREE | 2.09 |
| FQMEKIESGYENMNHFTVNLNREE | 3.02 |
| FQMEKIEHGNENMNHFTVNLNREE | 3.27 |
| FQMEKIEHGWENMNHFTVNLNREE | 2.42 |
| FQMEKIEHGCENMNHFTVNLNREE | 2.74 |
| FQMEKIEHGYRNMNHFTVNLNREE | 2.15 |
| FQMEKIEHGYNNMNHFTVNLNREE | 2.16 |
| FQMEKIEHGYDNMNHFTVNLNREE | 2.55 |
| FQMEKIEHGYLNMNHFTVNLNREE | 1.81 |
| FQMEKIEHGYGNMNHFTVNLNREE | 2.14 |
| FQMEKIEHGYENMNHFTVNLNDEE | 3.32 |
| FQMEKIEHGYENMNHFTVNLNAEE | 2.73 |
| FQMEKIEHGYENMNHFTVNLNEEE | 3.77 |
| FQMEKIEHGYENMNHFTVNLNMEE | 2.44 |
| FQMEKIEHGYENMNHFTVNLNWEE | 2.59 |
| FQMEKIEHGYENMNHFTVNLNVEE | 2.56 |
| FQMEKIEHGYENMNHFTVNLNPEE | 2.99 |
| FQMEKIEHGYENMNHFTGNLNREE | 3.74 |
| FQMEKIEHGYENMNHFTNNLNREE | 3.52 |

| Variant | protein stability index |
| --- | --- |
| FQMEKIEHGYENMNHFTRNLNREE | 3.73 |
| FQMEKIEHGYENMNHFTFNLNREE | 3.21 |
| FQMEKIEHGYENMNHFTDNLNREE | 3.94 |
| FQMEKIEHGYENMNHDTVNLNREE | 4.71 |
| FQMEKIEHGYENMNHATVNLNREE | 4.17 |
| FQMEKIEHGYENMNHKTVNLNREE | 4.52 |
| FQMEKIEHGYENMNHTTVNLNREE | 4.36 |
| FQMEKIEHGYENMNHSTVNLNREE | 4.41 |
| MQMEKIEHGYENMNHFTVNLNREE | 4.27 |
| CQMEKIEHGYENMNHFTVNLNREE | 3.72 |
| DQMEKIEHGYENMNHFTVNLNREE | 4.61 |
| GQMEKIEHGYENMNHFTVNLNREE | 4.78 |
| NQMEKIEHGYENMNHFTVNLNREE | 5.02 |
| VQMEKIEHGYENMNHFTVNLNREE | 4.19 |
| FQMEKIEHHYENMNHFTVNLNREE | 3.22 |
| FQMEKIEHSYENMNHFTVNLNREE | 3.21 |
| FQMEKIEHDYENMNHFTVNLNREE | 3.9 |
| FQMEKIEHGYENMNHFTVNLIREE | 2.59 |
| FQMEKIEHGYENMNHFTVNLEREE | 3.54 |
| FQMEKIEHGYENMNHFTVNLYREE | 2.5 |
| FQMEKIEHGYENMNHFTVNLTREE | 2.65 |
| FQMEKIEHGYENMNHFTVNLCREE | 1.82 |

| Variant | protein stability index |
| --- | --- |
| FQMEKIEHGYENMNHFTVNLNRLE | 2.17 |
| FQMEKIEHGYENMNHFTVNLNRNE | 2.87 |
| FQMEKIEHGYENMNHFTVNLNRTE | 1.92 |
| FQMEKIEHGYENMNHFTVNLNRDE | 3.09 |
| FNMEKIEHGYENMNHFTVNLNREE | 3.8 |
| FGMEKIEHGYENMNHFTVNLNREE | 3.7 |
| FPMEKIEHGYENMNHFTVNLNREE | 3.86 |
| FCMEKIEHGYENMNHFTVNLNREE | 2.57 |
| FRMEKIEHGYENMNHFTVNLNREE | 3.07 |
| FFMEKIEHGYENMNHFTVNLNREE | 2.69 |
| FQQEKIEHGYENMNHFTVNLNREE | 3.41 |
| FQREKIEHGYENMNHFTVNLNREE | 2.66 |
| FQTEKIEHGYENMNHFTVNLNREE | 3.44 |
| FQPEKIEHGYENMNHFTVNLNREE | 2.91 |
| FQHEKIEHGYENMNHFTVNLNREE | 3.43 |
| FQMEKIEHGYENMNRFTVNLNREE | 3.12 |
| FQMEKIEHGYENMNSFTVNLNREE | 3.14 |
| FQMEKIEHGYENMNFFTVNLNREE | 2.14 |
| FQMEKIEHGYENMNWFTVNLNREE | 1.98 |
| FQMEKIEHGYENMNCFTVNLNREE | 2.22 |
| FQMEKIEHGYENMNNFTVNLNREE | 3.77 |
| FQMEKIEHGYENMNGFTVNLNREE | 3.72 |

| Variant | protein stability index |
| --- | --- |
| FQMENIEHGYENMNHFTVNLNREE | 3.54 |
| FQMEDIEHGYENMNHFTVNLNREE | 4.14 |
| FQMEYIEHGYENMNHFTVNLNREE | 2.16 |
| FQMEKIEHGYENPNHFTVNLNREE | 3.51 |
| FQMEKIEHGYENHNHFTVNLNREE | 3.13 |
| FQMEKIEHGYENYNHFTVNLNREE | 2.38 |
| FQMEKIFHGYENMNHFTVNLNREE | 1.44 |
| FQMEKIYHGYENMNHFTVNLNREE | 2.1 |
| FQMEKIAHGYENMNHFTVNLNREE | 2.45 |
| FQMEKIEHGYENMNHFTVFLNREE | 2.29 |
| FQMEKIEHGYENMNHFTVDLNREE | 3.37 |
| FQMEKIEHGYENMNHFTVKLNREE | 2.47 |
| FQMEKIEHGYENMNHFTVGLNREE | 2.72 |
| FQMEKIEHGYENMNHFTVYLNREE | 1.86 |
| FQMEKIEHGYENMNHFTVCLNREE | 2.65 |
| FQMEKIEHGYENMNHFTVTLNREE | 2.27 |
| FQMEKIEHGYENMNHFTVQLNREE | 2.68 |
| FQMEKIEHGYENMNHFTVRLNREE | 2.4 |
| FQMEKIEHGYEKMNHFTVNLNREE | 2.44 |
| FQMEKIEHGYEDMNHFTVNLNREE | 3.65 |
| FQMEKIEHGYEGMNHFTVNLNREE | 2.98 |

Variants of: B2
Assay: as above
Details: c terminus: a fixed tail appended

| Variant | protein stability index |
| --- | --- |
| VRIQNPSLRENDFIEIELDRQELV | 2.2 |
| VRIQNPSLRENDFIEIELDRQELP | 2.49 |
| VRIQNPSLRENDFIEIELDRQELY | 1.59 |
| VRIQNPSLRENDFIEIELDRQELN | 2.48 |
| VRIQNPSLRENDFIEIELDRQELQ | 3.03 |
| VRIQNPSLRENDFIEIELDRQELE | 3.16 |
| VRIQNPSLRENDFIEIELDRQELC | 2.14 |
| VRIQNPSLRENDFIEIELDRQELK | 2.3 |
| VRIQNPSLRENDFIEIELDRQELS | 2.85 |
| VRIQNPSLRENDFIEIELDRQELA | 2.3 |
| VRIQNPSLRENDFIEIELDRQELG | 2.92 |
| VRIQNPSLRENDFIEIELDRQELI | 2.19 |
| VRIQNPSLRENDFIEIELDRQELF | 1.88 |
| VRIQNPSLRENDFIEIELDRQELH | 2.63 |
| VRIQNPSLRENDFIEIELDRQELM | 2.19 |
| VRIQNPSLRENDFIEIELDRQELD | 3.24 |
| VRIQNPSLRENDFIEIELDRQELL | 2.09 |
| VRIQNPSLRENDFIEIELDRQELW | 1.73 |
| VRIQNPSLRENDFIEIELDRQELR | 2.79 |
| VRIQNPSLRENDFIEIELDRQLLT | 2.61 |
| VRIQNPSLRENDFIEIELDRQFLT | 2.47 |
| VRIQNPSLRENDFIEIELDRQWLT | 1.82 |
| VRIQNPSLRENDFIEIELDRQPLT | 2.34 |
| VRIQNPSLRENDFIEIELDRQTLT | 2.06 |
| VRIQNPSLRENDFIEIELDRQKLT | 2.28 |
| VRIQNPSLRENDFIEIELDRQDLT | 2.87 |
| VRIQNPSLRENDFIEIELDRQVLT | 2.1 |

| Variant | protein stability index |
| --- | --- |
| VRIQNPSLRENDFIEIELDRQRLT | 2.65 |
| VRIQNPSLRENDFIEIELDRQMLT | 1.93 |
| VRIQNPSLRENDFIEIELDRQSLT | 2.1 |
| VRIQNPSLRENDFIEIELDRQHLT | 2.57 |
| VRIQNPSLRENDFIEIELDRQQLT | 1.86 |
| VRIQNPSLRENDFIEIELDRQCLT | 1.68 |
| VRIQNPSLRENDFIEIELDRQNLT | 2.34 |
| VRIQNPSLRENDFIEIELDRQGLT | 1.92 |
| VRIQNPSLRENDFIEIELDRQALT | 2.36 |
| VRIQNPSLRENDFIEIELDRQYLT | 2.37 |
| VRIQNPSLRENDFIEIELDRQILT | 2.73 |
| VRIQNPSLRENDFIEIELDRTELT | 2.47 |
| VRIQNPSLRENDFIEIELDRMELT | 2.01 |
| VRIQNPSLRENDFIEIELDRCELT | 2.15 |
| VRIQNPSLRENDFIEIELDRLELT | 1.8 |
| VRIQNPSLRENDFIEIELDREELT | 2.82 |
| VRIQNPSLRENDFIEIELDRHELT | 2.12 |
| VRIQNPSLRENDFIEIELDRSELT | 2.08 |
| VRIQNPSLRENDFIEIELDRWELT | 1.73 |
| VRIQNPSLRENDFIEIELDRGELT | 2.32 |
| VRIQNPSLRENDFIEIELDRVELT | 1.76 |
| VRIQNPSLRENDFIEIELDRIELT | 1.31 |
| VRIQNPSLRENDFIEIELDRPELT | 2.46 |
| VRIQNPSLRENDFIEIELDRRELT | 2.24 |
| VRIQNPSLRENDFIEIELDRNELT | 2.99 |
| VRIQNPSLRENDFIEIELDRDELT | 1.84 |
| VRIQNPSLRENDFIEIELDRKELT | 2.24 |

| Variant | protein stability index |
| --- | --- |
| VRIQNPSLRENDFIEIELDRFELT | 1.77 |
| VRIQNPSLRENDFIEIELDRYELT | 2.32 |
| VRIQNPSLRENDFIEIELDRAELT | 2.05 |
| VRIQNPSLRENDFIEIELDVQELT | 2.29 |
| VRIQNPSLRENDFIEIELDWQELT | 1.48 |
| VRIQNPSLRENDFIEIELDYQELT | 1.84 |
| VRIQNPSLRENDFIEIELDRQEGT | 3.99 |
| VRIQNPSLRENDFIEIELDRQEST | 3.89 |
| VRIQNPSLRENDFIEIELDRQEVT | 2.95 |
| VRIQNPSLRENDFIEIELDRQECT | 2.8 |
| VRIQNPSLRENDFIEIELDRQEHT | 3.92 |
| VRIQNPSLRENDFIEIELDRQEWT | 2.42 |
| VRIQNPSLRENDFIEIELDRQEIT | 2.45 |
| VRIQNPSLRENDFIEIELDRQEQT | 3.44 |
| VRIQNPSLRENDFIEIELDRQENT | 3.69 |
| VRIQNPSLRENDFIEIELDRQEET | 4.27 |
| VRIQNPSLRENDFIEIELDRQEDT | 4.25 |
| VRIQNPSLRENDFIEIELDRQEYT | 2.48 |
| VRIQNPSLRENDFIEIELDRQEPT | 3.26 |
| VRIQNPSLRENDFIEIELDRQEKT | 3.69 |
| VRIQNPSLRENDFIEIELDRQERT | 3.73 |
| VRIQNPSLRENDFIEIELDRQEMT | 2.77 |
| VRIQNPSLRENDFIEIELDRQEFT | 2.07 |
| VRIQNPSLRENDFIEIELDRQETT | 3.52 |
| VRIQNPSLRENDFIEIELDRQEAT | 3.58 |
